From PMC9246713

Biological target: OmpK36WT (wild type OmpK36 porin trimer of K. pneumoniae ATCC 43816) (Klebsiella pneumoniae)
Assay: cryo-EM structure; OmpK36-TraN sample 0.33 mg ml^-1 diluted 1:6 in buffer A (50 mM NaCl, 10 mM HEPES pH 7.0, 0.03% DDM); graphene oxide-coated grids; Titan Krios 300 keV; 2.6 Å

Row | Substance | stoichiometry N | occupancy (TraN molecules for each OmpK36 trimer) (molecule for each OmpK36 trimer)
1 | OmpK36WT (wild type OmpK36 porin trimer of K. pneumoniae ATCC 43816) (natural protein) | 3 | –
2 | TraN from the plasmid pKpQIL (mature TraN, D28 to Q651) (natural protein) | – | < 1
